According to paper PMC10808224, “Lsr2 acts as a cyclic di-GMP receptor that promotes keto-mycolic acid synthesis and biofilm formation in mycobacteria” (Nature Communications, 2024):

Legend:
[1] = target: Lsr2Mtb (Lsr2BCG in main text) (Mycobacterium tuberculosis) (UniProt P9WIP7); assay: EMSA
[2] = target: Lsr2Msm (Mycobacterium smegmatis mc2 155) (UniProt A0R576); assay: EMSA; conditions: EMSA: 50 mM Tris-HCl pH 7.5, 50 mM NaCl, 10% glycerol, 30 uL, room temperature 15 min; 8% native PAGE in 0.5x TBE

| Sequence | binding [1] | binding [2] |
| --- | --- | --- |
| CCGCTCGGATCGGGGTTCCGTCGGCCCTGGCGCTGGGTGCGGCCGGCGGCGCGTTGGCGGCTCTAGCCTCTAGACGCCAATCACGCTGATAAGCTGCGCCGTTAGCCTGGCGACGATGCGGCCCGCGCAGCGGGGCGAGGAGGAGCCGGGCAATAGGGCCCAGCCTGGCGACGATGCGACCCGCGCAGCGGGGCGAGGAGGAGCCGGGCAATAGGGCTTAGCAACTATTCGAGCGGAGGGCGGCAGCGGCATGACAGTTCCCGAAGAAGCCCAGACACTGATCGGCAAGCATTATCGGGC (double strand) [hadDMtbp / hadDBCGp] | binds |  |
| TAGTCGGGGTAGCGGTAGTGAGTCCCGATGATGTTTGCCGCGATGCTCATGTGTTCTCTGCTACTCCCGTGCTTCCAGCTTCAACTGCCCGGCTGCGGAAGCCTATCAGCGTGGGGGTTCAGCGAATGTCAGCGAAGGTCAGCGAAGGTCATGGCGGCGGGAGGCCACCGCGGCCAGCGCGCCGCCGAGCGCCCCTAGGGCCAGCGCGGACGGCACACCGATGCGGGCCGCTTTGCGGGCCGTGCGGAAGTCGCGGATCTCCCAGCCGCGTTCCCGCGCGACGTCGCGCAGCGCGGCGTC (double strand) [hadDMsmp] |  | binds |
